{
  "source": "paper PMC6628902",
  "origin": "cited, not measured here",
  "biological_target": "CXCL12 (Homo sapiens) (UniProt P48061)",
  "sequence (P48061 22-89)": "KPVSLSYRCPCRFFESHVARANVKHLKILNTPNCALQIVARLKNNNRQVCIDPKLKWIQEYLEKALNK",
  "data": [
    {"substance": "CXCR4 (from UniProt P61073)", "values": [
      {"measurement": "Kd", "value": 4.5, "unit": "nM"}
    ]}
  ]
}
